For test [1], the target named is T1, human calcitonin receptor (human, UniProt P30988 25-474).
T1 sequence (looked up): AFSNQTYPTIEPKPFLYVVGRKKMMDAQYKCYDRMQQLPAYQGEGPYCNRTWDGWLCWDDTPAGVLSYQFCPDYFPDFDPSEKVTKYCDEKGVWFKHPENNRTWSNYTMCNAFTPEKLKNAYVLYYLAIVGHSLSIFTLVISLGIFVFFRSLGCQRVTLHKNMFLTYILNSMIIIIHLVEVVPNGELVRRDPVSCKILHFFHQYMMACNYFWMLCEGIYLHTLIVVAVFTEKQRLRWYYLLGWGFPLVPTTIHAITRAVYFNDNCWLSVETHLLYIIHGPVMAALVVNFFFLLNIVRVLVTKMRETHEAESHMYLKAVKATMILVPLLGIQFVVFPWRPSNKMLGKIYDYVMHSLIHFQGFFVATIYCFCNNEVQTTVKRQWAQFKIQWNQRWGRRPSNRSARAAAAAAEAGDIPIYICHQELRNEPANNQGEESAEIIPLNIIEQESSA
Put plainly: cell-based or functional assay.

In test [2] the target is T2, human amylin receptor (amylin 3(a) receptor: human calcitonin receptor with RAMP-3) (human, UniProt P30988 25-474; O60896 24-148, limits assumed).
T2 construct: whole, on cells; Whole cells in the luciferase assay (Assay II a); also called hAmylin-R; hAmylinR
T2 sequence (looked up) 1: T1 sequence (looked up)
T2 sequence (looked up) 2: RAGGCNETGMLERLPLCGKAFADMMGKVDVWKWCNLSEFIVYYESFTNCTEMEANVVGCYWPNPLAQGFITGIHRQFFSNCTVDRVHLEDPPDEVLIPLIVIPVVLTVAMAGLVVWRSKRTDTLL
The experiment in a line: SPA competition binding on membranes of BHK cells with human calcitonin receptor + RAMP-3; displacement of 125I-rat amylin (Assay V). As for the experimental part:
The binding assay was performed using scintillation proximity assay (SPA) beads (RPNQ0001) from PerkinElmer and cell membranes from the Amylin 3(a)/CRE-luc cells (as described in Assay (II)) were used. Membranes were prepared in the following way; the cells were rinsed with PBS and incubated with Versene for approximately 5 min before harvesting. The cells were flushed with PBS and the cell-suspension was centrifuged for 5 min at 1000 rpm. Cells were homogenized (ultrathurrax) in a buffer containing 20 mM Na-HEPES and 10 mM EDTA (pH 7.4) and centrifuged at 20.000 rpm for 15 min. The resulting pellet was resuspended, homogenized and centrifuged (20.000 rpm, 15 min) in a buffer containing 20 mM Na-HEPES and 0.1 mM EDTA (pH 7.4, buffer 2). The resulting pellet was resuspended in buffer 2 and protein concentration was measured (BCA protein Assay, Pierce). The homogenate was kept cold during the whole procedure. The membranes were kept at −80° C. until use. The assay was performed in a 384 well Optiplate (PerkinElmer) in a total volume of 40 ul. Membranes were mixed with SPA beads. Final concentration of membranes 35 ng/μL final and SPA beads was 0.05 mg/well. Test-compounds were dissolved in DMSO and further diluted in assay buffer (50 mM Hepes, pH 7.4, 1 mM CaCl2, 5 mM MgCl₂, 0.1% OA and 0.02% Tween20). […] The final mixture was incubated with shaking at 400 rpm for 120 min at 25° C. prior to centrifugation (1500 rpm, 10 min). Samples were analyzed on TopCounter™ (Packard). The IC₅₀ was calculated using (one site binding competition analysis) GraphPad Prism5 as a measure of receptor affinity.

Numbered stars: 1 amine (or outer) side, 2 acyl side, 3 side chain; on linkers, the order of the positions; unused ones are H or OH. Bridge positions count the residues as written; N and C are the ends. * marks the point of attachment. C20 diacid = O=C(O)CCCCCCCCCCCCCCCCCCC(=O)*; γGlu = O=C(O)[C@H](CCC(=O)[*:2])N[*:1]

B1: N^α1-[(4S)-4-carboxy-4-(19-carboxynonadecanoylamino)butanoyl]-[Glu14,Arg17,Pro21,Pro27,Asp35,Pro37]-h-amylin (peptide)
peptide: {C20 diacid-γGlu}-KCNTATCATQRLAEFLRHSSPNFGAIPSSTNVGSDTP-NH2
modifications: disulfide 2-7
SMILES: CC[C@H](C)[C@H](NC(=O)[C@H](C)NC(=O)CNC(=O)[C@H](Cc1ccccc1)NC(=O)[C@H](CC(N)=O)NC(=O)[C@@H]1CCCN1C(=O)[C@H](CO)NC(=O)[C@H](CO)NC(=O)[C@H](Cc1c[nH]cn1)NC(=O)[C@H](CCCNC(=N)N)NC(=O)[C@H](CC(C)C)NC(=O)[C@H](Cc1ccccc1)NC(=O)[C@H](CCC(=O)O)NC(=O)[C@H](C)NC(=O)[C@H](CC(C)C)NC(=O)[C@H](CCCNC(=N)N)NC(=O)[C@H](CCC(N)=O)NC(=O)[C@@H](NC(=O)[C@H](C)NC(=O)[C@@H]1CSSC[C@H](NC(=O)[C@H](CCCCN)NC(=O)CC[C@H](NC(=O)CCCCCCCCCCCCCCCCCCC(=O)O)C(=O)O)C(=O)N[C@@H](CC(N)=O)C(=O)N[C@@H]([C@@H](C)O)C(=O)N[C@@H](C)C(=O)N[C@@H]([C@@H](C)O)C(=O)N1)[C@@H](C)O)C(=O)N1CCC[C@H]1C(=O)N[C@@H](CO)C(=O)N[C@@H](CO)C(=O)N[C@H](C(=O)N[C@@H](CC(N)=O)C(=O)N[C@H](C(=O)NCC(=O)N[C@@H](CO)C(=O)N[C@@H](CC(=O)O)C(=O)N[C@H](C(=O)N1CCC[C@H]1C(N)=O)[C@@H](C)O)C(C)C)[C@@H](C)O
notes: also called compound 11
Regarding B1, the “Ratio hCT/hAmylin funct.” value in test [1] is 0.9 ratio. The IC50 in test [2] was 0.105 nM.

B2: N^α1-[(4S)-4-carboxy-4-(19-carboxynonadecanoylamino)butanoyl]-[Glu14,Arg17,Pro21,Pro27,His35]-h-amylin (peptide)
peptide: {C20 diacid-γGlu}-KCNTATCATQRLAEFLRHSSPNFGAIPSSTNVGSHTY-NH2
modifications: disulfide 2-7
SMILES: CC[C@H](C)[C@H](NC(=O)[C@H](C)NC(=O)CNC(=O)[C@H](Cc1ccccc1)NC(=O)[C@H](CC(N)=O)NC(=O)[C@@H]1CCCN1C(=O)[C@H](CO)NC(=O)[C@H](CO)NC(=O)[C@H](Cc1c[nH]cn1)NC(=O)[C@H](CCCNC(=N)N)NC(=O)[C@H](CC(C)C)NC(=O)[C@H](Cc1ccccc1)NC(=O)[C@H](CCC(=O)O)NC(=O)[C@H](C)NC(=O)[C@H](CC(C)C)NC(=O)[C@H](CCCNC(=N)N)NC(=O)[C@H](CCC(N)=O)NC(=O)[C@@H](NC(=O)[C@H](C)NC(=O)[C@@H]1CSSC[C@H](NC(=O)[C@H](CCCCN)NC(=O)CC[C@H](NC(=O)CCCCCCCCCCCCCCCCCCC(=O)O)C(=O)O)C(=O)N[C@@H](CC(N)=O)C(=O)N[C@@H]([C@@H](C)O)C(=O)N[C@@H](C)C(=O)N[C@@H]([C@@H](C)O)C(=O)N1)[C@@H](C)O)C(=O)N1CCC[C@H]1C(=O)N[C@@H](CO)C(=O)N[C@@H](CO)C(=O)N[C@H](C(=O)N[C@@H](CC(N)=O)C(=O)N[C@H](C(=O)NCC(=O)N[C@@H](CO)C(=O)N[C@@H](Cc1c[nH]cn1)C(=O)N[C@H](C(=O)N[C@@H](Cc1ccc(O)cc1)C(N)=O)[C@@H](C)O)C(C)C)[C@@H](C)O
notes: also called compound 18
Turning to B2, in test [1], the “Ratio hCT/hAmylin funct.” value came out at 4.8 ratio. The IC50 in test [2] was 0.554 nM.

The values above are taken from patent US20140087995A1 (published 2014).
